# Test results reported in IntAct's records for PubMed 17350572.
# B1: Programmed cell death 6-interacting protein (Homo sapiens), Q8WUM4 (parent)
# chain: MATFISVQLKKTSEVDLAKPLVKFIQQTYPSGGEEQAQYCRAAEELSKLRRAAVGRPLDKHEGALETLLRYYDQICSIEPKFPFSENQICLTFTWKDAFDKGSLFGGSVKLALASLGYEKSCVLFNCAALASQIAAEQNLDNDEGLKIAAKHYQFASGAFLHIKETVLSALSREPTVDISPDTVGTLSLIMLAQAQEVFFLKATRDKMKDAIIAKLANQAADYFGDAFKQCQYKDTLPKEVFPVLAAKHCIMQANAEYHQSILAKQQKKFGEEIARLQHAAELIKTVASRYDEYVNVKDFSDKINRALAAAKKDNDFIYHDRVPDLKDLDPIGKATLVKSTPVNVPISQKFTDLFEKMVPVSVQQSLAAYNQRKADLVNRSIAQMREATTLANGVLASLNLPAAIEDVSGDTVPQSILTKSRSVIEQGGIQTVDQLIKELPELLQRNREILDESLRLLDEEEATDNDLRAKFKERWQRTPSNELYKPLRAEGTNFRTVLDKAVQADGQVKECYQSHRDTIVLLCKPEPELNAAIPSANPAKTMQGSEVVNVLKSLLSNLDEVKKEREGLENDLKSVNFDMTSKFLTALAQDGVINEEALSVTELDRVYGGLTTKVQESLKKQEGLLKNIQVSHQEFSKMKQSNNEANLREEVLKNLATAYDNFVELVANLKEGTKFYNELTEILVRFQNKCSDIVFARKTERDELLKDLQQSIAREPSAPSIPTPAYQSSPAGGHAPTPPTPAPRTMPPTKPQPPARPPPPVLPANRAPSATAPSPVGAGTAAPAPSQTPGSAPPPQAQGPPYPTYPGYPGYCQMPMPMGYNPYAYGQYNMPYPPVYHQSPGQAPYPGPQQPSYPFPQPPQQSYYPQQ
# B2: Gag polyprotein (Equine infectious anemia virus (isolate 1369) (EIAV)), P69730 (parent)
# chain: MGDPLTWSKALKKLEKVTVQGSQKLTTGNCNWALSLVDLFHDTNFVKEKDWQLRDVIPLLEDVTQTLSGQEREAFERTWWAISAVKMGLQINNVVDGKASFQLLRAKYEKKTANKKQSEPSEEYPIMIDGAGNRNFRPLTPRGYTTWVNTIQTNGLLNEASQNLFGILSVDCTSEEMNAFLDVVPGQAGQKQILLDAIDKIADDWDNRHPLPNAPLVAPPQGPIPMTARFIRGLGVPRERQMEPAFDQFRQTYRQWIIEAMSEGIKVMIGKPKAQNIRQGAKEPYPEFVDRLLSQIKSEGHPQEISKFLTDTLTIQNANEECRNAMRHLRPEDTLEEKMYACRDIGTTKQKMMLLAKALQTGLAGPFKGGALKGGPLKAAQTCYNCGKPGHLSSQCRAPKVCFKCKQPGHFSKQCRSVPKNGKQGAQGRPQKQTFPIQQKSQHNKSVVQETPQTQNLYPDLSEIKKEYNVKEKDQVEDLNLDSLWE
# B3: Programmed cell death 6-interacting protein (Homo sapiens), Q8WUM4 (parent)
# chain: B1 chain
# partner: B2 chain
# B4: Programmed cell death 6-interacting protein (Homo sapiens), Q8WUM4 (parent)
# chain: B1 chain
# partner: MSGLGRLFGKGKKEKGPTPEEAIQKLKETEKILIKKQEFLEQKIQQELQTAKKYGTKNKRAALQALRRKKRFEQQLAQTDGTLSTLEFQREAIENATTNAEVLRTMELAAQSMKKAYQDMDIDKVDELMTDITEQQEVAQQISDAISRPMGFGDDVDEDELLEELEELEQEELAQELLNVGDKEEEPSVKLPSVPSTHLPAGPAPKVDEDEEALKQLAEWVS
# Variants of: B1
# Settings: with gag_hv1b1 gag
row,Variant,effect of a mutation on the interaction
1,V498D,disrupting interaction
2,F676D,disrupting interaction
3,I683D,decreasing interaction

# Variants of: B1
# Settings: with ts101_human TSG101, Q99816
# Chain of ts101_human TSG101, Q99816 (Q99816 whole entry): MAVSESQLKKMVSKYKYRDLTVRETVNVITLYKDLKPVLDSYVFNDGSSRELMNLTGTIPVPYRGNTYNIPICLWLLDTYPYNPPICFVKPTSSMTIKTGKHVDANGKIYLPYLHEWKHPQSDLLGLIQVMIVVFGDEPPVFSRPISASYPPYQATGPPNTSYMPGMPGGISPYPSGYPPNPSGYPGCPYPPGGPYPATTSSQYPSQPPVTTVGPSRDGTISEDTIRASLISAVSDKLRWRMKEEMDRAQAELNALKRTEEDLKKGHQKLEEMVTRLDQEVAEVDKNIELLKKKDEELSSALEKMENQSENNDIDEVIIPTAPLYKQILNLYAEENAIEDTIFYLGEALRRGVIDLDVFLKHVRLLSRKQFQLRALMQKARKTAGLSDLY
row,Variant,effect of a mutation on the interaction
1,P720L,disrupting interaction

# Variants of: B1
# Settings: with sh3g2_human SH3GL2, Q99962
# Chain of sh3g2_human SH3GL2, Q99962 (Q99962 whole entry): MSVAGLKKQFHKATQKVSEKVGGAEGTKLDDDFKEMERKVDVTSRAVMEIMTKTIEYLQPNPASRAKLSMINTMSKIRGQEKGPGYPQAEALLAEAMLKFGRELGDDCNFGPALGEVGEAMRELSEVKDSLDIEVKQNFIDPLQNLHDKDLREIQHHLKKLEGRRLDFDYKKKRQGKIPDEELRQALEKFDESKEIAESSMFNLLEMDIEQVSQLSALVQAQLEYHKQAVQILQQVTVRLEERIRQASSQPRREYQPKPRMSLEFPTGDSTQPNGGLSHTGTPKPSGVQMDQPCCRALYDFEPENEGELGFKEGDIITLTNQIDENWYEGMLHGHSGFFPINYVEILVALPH
row,Variant,effect of a mutation on the interaction
1,R757A;P758A,decreasing interaction

# Variants of: B2
# Settings: with pdc6i_human PDCD6IP
row,Variant,effect of a mutation on the interaction
1,Y458S;P459R,decreasing interaction

# Variants of: B3
# Settings: with gag_eiav9 gag
row,Variant,effect of a mutation on the interaction
1,V498D,decreasing interaction
2,F676D,disrupting interaction
3,I683D,decreasing interaction

# Variants of: B4
# Settings: with chm4a_human CHMP4A
row,Variant,effect of a mutation on the interaction
1,I212D,disrupting interaction
